Source: the supplement of paper PMC10567573

B1: ZNF263 (parent)
chain: QPKKLHLCPLCGKNFSNNSNLIRH

Variants of: B1
Test: protein stability index of a GFP-peptide fusion (GPS, HEK-293T) (PSI 1-6); higher = more stable
Settings: c terminus: a fixed tail appended
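Also: lentivirally expressed fusions sorted by FACS into six bins by GFP to DsRed ratio, PSI derived from sequencing read proportions per bin multiplied by bin number.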

Variant | protein stability index
QPKKLHLCPLCGKNFSNNSNPIRH | 1.93
QPKKLHLCPLCGKNFSNNSNCIRH | 3.13
QPKKLHLCPLCGKNFSNNSNYIRH | 2.12
QPKKLHLCPLCGKNFSNNSNIIRH | 2.47
QPKKLHLCPLCGKNFSNNSNMIRH | 2.48
QPKKLHLCPLCGKNFSNNSNDIRH | 2.72
QPKKLHLCPLCGKNFSNNSNEIRH | 2.92
QPKKLHLCPLCGKNFSNNSSLIRH | 3.09
QPKKLHLCPLCGKNFSNNSLLIRH | 3.05
QPKKLHLCPLCGKNFSNNSGLIRH | 2.46
QPKKLHLCPLCGKNFSNNSDLIRH | 4
QPKKLHLCPLCGKHFSNNSNLIRH | 3.06
QPKKLHLCPLCGKPFSNNSNLIRH | 2.61
QPKKLHLCPLCGKEFSNNSNLIRH | 3.52
QPKKLHLCPLCGKRFSNNSNLIRH | 2.35
QPKKLHLCPLVGKNFSNNSNLIRH | 2.48
QPKKLHLCPLGGKNFSNNSNLIRH | 2.56
QPKKLHLCPLFGKNFSNNSNLIRH | 1.87
QPKKLHLCPLQGKNFSNNSNLIRH | 2.91
QPKKLHLCPLWGKNFSNNSNLIRH | 1.74
QPKKLHLCPLCGKNFWNNSNLIRH | 2.09
QPKKLHLCPLCGKNFVNNSNLIRH | 2.05
QPKKLHLCPLCGKNFRNNSNLIRH | 2.17
QPKKLHLCPLCGKNFHNNSNLIRH | 2.42

Variant | protein stability index
QPKKLHLCPLCGKNFKNNSNLIRH | 2.56
QPKKLHLCPLCGKNFGNNSNLIRH | 3.42
QPKKLHLCPLCGKNFYNNSNLIRH | 2.6
QPKKLHLCPLCGLNFSNNSNLIRH | 2.21
QPKKLHLCPLCGQNFSNNSNLIRH | 2.11
QPKKLHLCPLCGSNFSNNSNLIRH | 2.41
QPKKLHLCPLCGENFSNNSNLIRH | 2.29
QPKKLHLCPLCGRNFSNNSNLIRH | 2.53
QPKKLHGCPLCGKNFSNNSNLIRH | 2.08
QPKKLHQCPLCGKNFSNNSNLIRH | 2.85
QPKKLHSCPLCGKNFSNNSNLIRH | 2.1
QPKKLHTCPLCGKNFSNNSNLIRH | 2.74
QPKKLHRCPLCGKNFSNNSNLIRH | 2.72
QPKKLHKCPLCGKNFSNNSNLIRH | 2.88
QPKKLHACPLCGKNFSNNSNLIRH | 2.69
QPKKLHECPLCGKNFSNNSNLIRH | 2.28
QPKKLHYCPLCGKNFSNNSNLIRH | 3.02
QPKKLHLCPLCGKNFSNNNNLIRH | 2.89
QPKKLHLCPLCGKNFSNNTNLIRH | 2.75
QPKKLHLCPLCGKNFSNNPNLIRH | 1.77
QPKKLHLCPLCGKNFSNNSNLIRK | 2.64
QPKKLHLCPLCGKNFSNNSNLIRY | 2.61
QPKKLHLCPLCGKNFSNNSNLIRE | 2.43
QPKKLHLCPLCGKNFSNNSNLIRG | 2.43

Variant | protein stability index
QPKKLHLCPLCGKNFSNNSNLIRL | 2.24
QPKKLHLCPLCGKNFSNNSNLIRV | 2.27
QPKKLHLCPLCGKNFSNNSNLIRI | 2.08
QPKKLHLCPFCGKNFSNNSNLIRH | 3.03
QPKKLHLCPQCGKNFSNNSNLIRH | 2.91
QPKKLHLCPPCGKNFSNNSNLIRH | 2.62
QPKKLHLCPHCGKNFSNNSNLIRH | 3.56
QPKKLHLCPLCGKNFSNNSNLLRH | 2.93
QPKKLHLCPLCGKNFSNNSNLMRH | 2.88
QPKKLHLCPLCGKNFSNNSNLRRH | 2.76
QPKKLHLCPLCGKNFSNNSNLCRH | 4.04
QPKKLHLCPLCGKNFSPNSNLIRH | 2.33
QPKKLHLCPLCGKNFSENSNLIRH | 2.33
QPKKLHLCPLCGKNFSINSNLIRH | 2.25
QPKKLHLCPLCGKNFSDNSNLIRH | 2.48
QPKKLHLCPLCGKNFSANSNLIRH | 2.69
QPKKLHLCPLCGKNFSTNSNLIRH | 2.91
QPKKLHLCPLCGKNFSVNSNLIRH | 2.18
QPKKLHLCPLCGKNFSLNSNLIRH | 2.58
QPKKLHLCPLCGKNFSGNSNLIRH | 2.09
QPKKLHLCPLCGKNFSFNSNLIRH | 2.06
QPKKLHLCPLCGKNFSWNSNLIRH | 2.15
QPKKLKLCPLCGKNFSNNSNLIRH | 2.81
QPKKLCLCPLCGKNFSNNSNLIRH | 1.99

Variant | protein stability index
QPKKLRLCPLCGKNFSNNSNLIRH | 2.32
QPKKLFLCPLCGKNFSNNSNLIRH | 2.44
QPKWLHLCPLCGKNFSNNSNLIRH | 2.47
QPKMLHLCPLCGKNFSNNSNLIRH | 2.53
QPKTLHLCPLCGKNFSNNSNLIRH | 2.75
QPKCLHLCPLCGKNFSNNSNLIRH | 2.53
QPKRLHLCPLCGKNFSNNSNLIRH | 1.88
QPKALHLCPLCGKNFSNNSNLIRH | 2.19
QPCKLHLCPLCGKNFSNNSNLIRH | 2.32
QPSKLHLCPLCGKNFSNNSNLIRH | 2.56
QPTKLHLCPLCGKNFSNNSNLIRH | 2.17
QPHKLHLCPLCGKNFSNNSNLIRH | 2.82
QPMKLHLCPLCGKNFSNNSNLIRH | 2.78
QPVKLHLCPLCGKNFSNNSNLIRH | 2.67
QPIKLHLCPLCGKNFSNNSNLIRH | 2.78
QPLKLHLCPLCGKNFSNNSNLIRH | 2.63
QPFKLHLCPLCGKNFSNNSNLIRH | 2.83
QPKKLHLPPLCGKNFSNNSNLIRH | 2.82
QPKKLHLGPLCGKNFSNNSNLIRH | 2.85
QPKKLHLNPLCGKNFSNNSNLIRH | 3
QPKKLHLEPLCGKNFSNNSNLIRH | 3.1
QPKKMHLCPLCGKNFSNNSNLIRH | 2.71
